Assay results published in the supplement of paper PMC12042874.
± gives the uncertainty stated by the source.

Experiment: amyloid nucleation score (Sup35N fusion, yeast selection) (log enrichment); library NNK3; higher = more nucleation; inactive = no reads after selection
Outline: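 The nucleation score, computed with DiMSum, is the log enrichment of output over input reads, centred on the mode score of non-aggregating sequences. Sequences with under 100 input reads were dropped. Reads were generated by Illumina sequencing of plasmid inserts from psi-negative yeast with Sup35N fused to peptides of 20 random codons, induced with 100 μM copper sulfate for 24 hours and grown 7 days at 30°C on medium lacking adenine and uracil.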

Substance	amyloid nucleation score
WNSHQREEYTVDCYVVSVKL	-0.023 ± 0.6
WNTGETISRRLVVYNFIEMN	2.22 ± 0.056
WNVELSNLVEIMGRCACYSS	0.406 ± 0.35
WPAAQVNQIHYCVGLNNYTW	inactive
WPFRKKYGIVEIRDEMYAG	inactive
WPSYSRLQTDFRGTGFFFRG	inactive
WPYGIVTLRTWANYLGLFTL	-0.796 ± 1.1
WQCGNVLLSYAQYNAVLVAW	inactive
WRGKKSWAWPDQCLI	inactive
WRMDSRYYCYYQFLSLSYQW	inactive
WRPFWYIGFHVNVTRG	inactive
WRSKLLM	inactive
WRVPCLIVKYDV	inactive
WRVSNKIIPIIRWQWMDPCL	inactive
WSDWRLIKFNFRRSYLCLLW	inactive
WSFRNVVSVGMWYLCSDRIG	inactive
WSGHIGVLRTTSSQQWRVRR	inactive
WSMCKLKDFFTGRGVYRFIS	inactive
WSSWSRS	inactive
WSTLFVIILPTKTLGYYCFW	inactive
WSTMMNNWCLLWGCKLKPKL	inactive
WSWRDLEGQNSGKEAVILEL	inactive
WTESWYKYMNKDVSSHCKQS	inactive

Substance	amyloid nucleation score
WVDWFESSQTFFCALYE	inactive
WVHSVKENVSCGSRF	inactive
WVQHISLWSTMWNGPREAPM	inactive
WVSSDRHSSLVNWKHGLSQE	inactive
WVVRKVHSLSHCLGCHPESW	0.231 ± 0.57
WVWMTETVLWFRYKQVACGW	inactive
WVYNGIIYGRLFMDLLWTGL	inactive
WYGCVAWYVVKSMFYS	inactive
WYMGFSAVLVCFRLSRPVT	inactive
WYNNYFRQVPSCVKDGRSHP	inactive
WYPLGRPRVLINYETPTSVM	inactive
WYSRTDCNKTAENSCSTKFI	0.611 ± 0.17
WYVFMCNGSWFLRNCRNLSY	0.144 ± 0.78
YAALWITYCLSSTTSRDDLD	inactive
YAEPYRRDVPGSCEYLTMM	inactive
YASVRVQFCCIFKSADRASP	1.9 ± 0.088
YAVSLMIFGFWGSSMFSHPS	0.779 ± 0.11
YCALLRNAITVV	inactive
YCCSGMWVMRSVHSHEIGYL	0.966 ± 0.18
YCDNYYSLMSTTEEFPRVCV	inactive
YCFDI	inactive
YCKFDS	0.705 ± 0.12
YCTRGNSTNLEYELECLVIF	inactive

Substance	amyloid nucleation score
YCVFGRNCDNKAVVLIGGNP	inactive
YCVQCR	inactive
YDLRIYSKRVDPF	inactive
YDLVSNG	inactive
YDMFMVSWLKEIDWMQDDPR	inactive
YDWMFLYPTSIS	0.319 ± 0.18
YEWKTRGW	inactive
YFATRDFAWVFENGSIEGAT	inactive
YFENLVEVRQIATFKTV	inactive
YFGDPSSRMKCFYPYVSVCR	inactive
YFILIYWSQCSMWYYVFKYG	inactive
YFINMRKYCTCPDMCEVLRI	0.574 ± 0.18
YFKYTN	1.32 ± 0.15
YFLSDLQRKGSGLETVRVCR	inactive
YFMVRWYCAGLDILCGLQEK	inactive
YFNYSLFISVCS	inactive
YFTNDQNKQGFHWMGYMSHI	inactive
YFVCVEEVRKYMEPSELGVR	inactive
YFVTTVKVEALFQ	-0.23 ± 0.55
YFYFVTHRDELGMSGPVTWA	inactive
YGFAVRLCCPSLNVFLTELL	0.612 ± 0.15
YGHFPQCVPLIFCYRRSMVT	inactive
YGIAMTQTIVSCSEIESKLR	inactive

Substance	amyloid nucleation score
YGLHTGKSKALQQRIVW	inactive
YGLSGDKFRWM	inactive
YGLVGQFSTVGTKQALLLGT	inactive
YGMYC	inactive
YGYALVFTFYVGLNSVNRLR	0.801 ± 0.3
YGYVIPSSQLPSWTLQRY	inactive
YHCNGPGSLWSTNLACRSME	inactive
YIASNAWETWRRDRSYRKRL	inactive
YIEAIYRDVPPECGTLLRTL	inactive
YIFVT	inactive
YIGRRNMPNFSSMWMWSQGK	inactive
YIIFLTMAHF	0.656 ± 0.29
YIKLGYQYLYVGE	inactive
YILIL	inactive
YIMSNLFGGNNLFGG	inactive
YISFVFDRYNKSYGTARICK	-0.506 ± 0.82
YIYSVEEYSRTSLIDDSVGW	inactive
YKFEHVIFWNSFLNIKVEFS	1.56 ± 0.068
YKFFGDLKVAYFGKVKIE	inactive
YKNEMGTIPCRRVTSNCLSY	inactive
YKQCN	inactive
YKRFMIPIKYCGGQRNTDVR	inactive
YKRRKTVNWHQDCTAIFGGN	inactive

Substance	amyloid nucleation score
YKVGRSHCGKKSEDLP	inactive
YKVILTCSKC	inactive
YKYDRFWKVFHQGRTLVAGG	inactive
YLCYMEYVH	inactive
YLDLFLWIREMLYYTGSLRV	inactive
YLFWLYERRKGDYISPHVLR	inactive
YLGEHRVVVRNSMSPQPWLS	inactive
YLGGVRSII	-0.402 ± 1.9
YLIYDRLSIQPDSSHHLVV	-0.124 ± 0.62
YLLLDEVRSKYCWGISCTGY	inactive
YLMYSVESVRWTLIE	inactive
YLNPAFELFKRMSNRFFVLA	-1.02 ± 1.9
YLRVWPMRVYNMP	inactive
YLTMYDSNDIFTIVATVMST	inactive
YLTVWFTKKLCVLFLFNIWK	inactive
YLVSYFNRGQSAFRFWDKFA	inactive
YLVYRNVTMVCPDRQH	0.375 ± 0.27
YLYCRAWIWLDNSMLSWS	inactive
YLYVRYTFRYWVVNYRYNNG	inactive
YMDPWYVIDHCLWRQMFLSE	-0.557 ± 1
YMEAC	inactive
YMKDALNLRPLRSSTALFLS	inactive
YMLWDDMVEKYHCLSQRLGR	inactive

Substance	amyloid nucleation score
YMNSTFQMFD	0.829 ± 0.19
YMVWMLNQDRSACGINIMSI	1.33 ± 0.12
YNDFCN	0.194 ± 0.27
YNDGVCIILFNLPFVCRRST	2.85 ± 0.05
YNERLALLGLMVSLNVSSHS	inactive
YNFECLIFWSVKYLVCQHIT	inactive
YNGGIRVTLT	inactive
YNHSMGWVCSAFDAKVRILR	inactive
YNLAGVFVIGHGNACATAFR	0.831 ± 0.3
YNMFNTLVDRVQLRGLCYGV	inactive
YNPIGFRRLFTPTCLFITKL	inactive
YNRADSIRFQ	inactive
YNSSTTVIDFTF	inactive
YNVRSFLTKVEWTYYFS	0.391 ± 0.16
YPCERYHRPHDQQNVDLTNL	inactive
YPCEVLGCDAN	inactive
YPKACVI	inactive
YPLYASTS	1.07 ± 0.16
YPNDLTRVFDRDNNLLGTHG	0.551 ± 0.32
YPWVYLAGYFHFFDELVGIF	inactive
YPYSSVTRNILCVENRCTGW	inactive
YQCFVKELYKECISHWARRK	inactive
YQRVHTSCHHELSIHGSSCT	inactive

Substance	amyloid nucleation score
YQSTVFGCYTYSRLKCLRSA	inactive
YRDRYLDPLWAD	inactive
YRHPTIECWSKMRCALVVCT	inactive
YRILRRYSDPAHEDIKRCTL	inactive
YRILYGWSFMIRLILDVQRE	inactive
YRLSLRH	inactive
YRRLCGDCGFGTLRLDLLFV	inactive
YRSEGSWHDDSQSKKWWSGV	inactive
YRTIVVLSNFFNILSFSKNQ	0.718 ± 0.15
YRYFGTAAMKRICHRNSIVS	inactive
YSACSSGVPRCLDMSRATVE	-0.055 ± 1.1
YSCLRLYATNHVTLWICELK	inactive
YSDIVFILDLGYCAF	1.3 ± 0.091
YSDTFADNYLNCMHQVKCVN	inactive
YSFSRY	inactive
YSGGCGWIMSRNSVRYSCIC	inactive
YSGGLWWYWPSECNNAKYVL	inactive
YSIIVVL	1.39 ± 0.087
YSIMFRVLVGT	inactive
YSKCNRIFFTEDLF	-0.295 ± 0.8
